Laboratory results reported in the supplement of paper PMC10724198.
± gives the standard deviation of the averaged measurements.

These sequences were tested on Saccharomyces cerevisiae (assay: protein stability index of tFT-peptide fusion (C-terminal peptide) (PSI (0-1 scale)); higher = more stable (slower turnover)). Details: genetic background: wild type; temperature: 30 C.
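Also: PSI is a weighted mean of sequencing reads over stability bins, variants kept only with over 10 reads, mCherry proximal and sfGFP distal, peptide attached via GGGS linker.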

| Sequence | protein stability index |
| --- | --- |
| TKKKPGEPGKRK | 0.666 ± 0.013 |
| TKLRHHKTQIVD | 0.652 ± 0.059 |
| TKNNYKKKKTKT | 0.682 ± 0.029 |
| TKNTEGVKNSLF | 0.64 ± 0.096 |
| TLAPPSRATPPP | 0.648 ± 0.041 |
| TLCITHARCFVK | 0.63 ± 0.0069 |
| TLGLDPCCSYSR | 0.752 ± 0.15 |
| TLLCGDASVLTA | 0.658 ± 0.071 |
| TLPRSLGPSSPA | 0.753 ± 0.076 |
| TLPVKAGHWRLG | 0.73084 ± 0.00065 |
| TLSPAPSPTPPP | 0.678 ± 0.048 |
| TLSPFRLFGPIS | 0.722 ± 0.092 |
| TLSSPPPPPPPP | 0.663 ± 0.046 |
| TLSTSPPPCHPL | 0.667 ± 0.06 |
| TMCRGGVSSQDL | 0.662 ± 0.057 |
| TMEKKAKKRIKK | 0.682 ± 0.23 |
| TMHFVWVLGILE | 0.524 ± 0.014 |
| TNKKKNRNKKAK | 0.657 ± 0.073 |
| TNLYGWGGERTV | 0.688 ± 0.0092 |
| TNVRMGCELEEK | 0.716 ± 0.14 |
| TNYWDRGSIQPK | 0.668 ± 0.021 |
| TPAIPTTLMSLR | 0.67 ± 0.063 |
| TPLHRIGGLHLK | 0.653 ± 0.0075 |

| Sequence | protein stability index |
| --- | --- |
| TPPLALPAPCST | 0.679 ± 0.035 |
| TPPLPRFHAPQP | 0.665 ± 0.017 |
| TPPLRPLLYSNA | 0.53 ± 0.059 |
| TPPPAPRPPLPS | 0.719 ± 0.069 |
| TPPPLRTASLLP | 0.67 ± 0.1 |
| TPPSPDPSPPNT | 0.789 ± 0.046 |
| TPSPHTPLPLAP | 0.708 ± 0.09 |
| TPSPTRCPTPTR | 0.6 ± 0.025 |
| TPTLPPPSPTFH | 0.666 ± 0.021 |
| TPTSPPLPLTIS | 0.579 ± 0.016 |
| TPWLRGVVGPGS | 0.671 ± 0.083 |
| TQGLSSYYRHKI | 0.686 ± 0.061 |
| TQLSSVVVGGRR | 0.669 ± 0.015 |
| TRCDSSGGSAAP | 0.68 ± 0.094 |
| TRDATESLVERV | 0.694 ± 0.02 |
| TRFFFLLCRRSL | 0.57 ± 0.082 |
| TRGAGAKYSSVR | 0.721 ± 0.019 |
| TRGKETESIDSR | 0.685 ± 0.036 |
| TRICFPRFPPAP | 0.703 ± 0.044 |
| TRIGNGHPLGCG | 0.718 ± 0.024 |
| TRKRIKKHSMNK | 0.672 ± 0.085 |
| TRLVYFYLGRDI | 0.656 ± 0.054 |
| TRRRGGAREGPY | 0.758 ± 0.064 |

| Sequence | protein stability index |
| --- | --- |
| TRSLPTLSPPPS | 0.659 ± 0.086 |
| TRSPTVAMRPKE | 0.676 ± 0.036 |
| TRTQTLAGILGG | 0.677 ± 0.029 |
| TRTRSMTQLVPL | 0.716 ± 0.068 |
| TRYGVRVPGRFR | 0.678 ± 0.018 |
| TSARQGFFASLV | 0.646 ± 0.049 |
| TSCPPAHLPPPP | 0.659 ± 0.046 |
| TSGDFLPSHSFL | 0.702 ± 0.074 |
| TSPGLPLPLPSP | 0.716 ± 0.0048 |
| TSPLSPPLPSFR | 0.696 ± 0.021 |
| TSPLSPSGPQSS | 0.86 ± 0.14 |
| TSPPPPSRPPSH | 0.691 ± 0.029 |
| TSPSLSALLSFV | 0.715 ± 0.073 |
| TSPVCPARPRQL | 0.646 ± 0.042 |
| TSSASVCASSVQ | 0.588 ± 0.023 |
| TSSTEKTKTKRP | 0.809 ± 0.17 |
| TTITTRSCALSS | 0.707 ± 0.015 |
| TTMNELPKSIKK | 0.739 ± 0.042 |
| TTPPPLPSDPLR | 0.622 ± 0.026 |
| TTRACVTRGCSV | 0.623 ± 0.051 |
| TTRTAAKKIHKD | 0.74 ± 0.055 |
| TTSQGHLCVAPR | 0.6827 ± 0.0038 |
| TTSSRDYIELLL | 0.729 ± 0.016 |

| Sequence | protein stability index |
| --- | --- |
| TTTFPFGRLVLS | 0.68 ± 0.028 |
| TTVLRTFGDKQF | 0.715 ± 0.00088 |
| TTVRTVSLIDRI | 0.689 ± 0.059 |
| TVAEGKKMRGKV | 0.672 ± 0.036 |
| TVLKCECEYFLH | 0.654 ± 0.019 |
| TVPGKDEGEESV | 0.696 ± 0.037 |
| TVRAPLDSARCP | 0.739 ± 0.017 |
| TVWSSPPSRRSS | 0.699 ± 0.043 |
| TWAVTGDLLITR | 0.815 ± 0.15 |
| TWCSFHFYSFWC | 0.578 ± 0.01 |
| TWIPSFACQSLQ | 0.70274 ± 0.00029 |
| TYLSSPAPLLPL | 0.694 ± 0.033 |
| TYQNAKAEPTRV | 0.671 ± 0.038 |
| VACKGCVVACRV | 0.527 ± 0.045 |
| VACLVGVRGSWV | 0.66683 ± 0.00048 |
| VAESPGWAAGVD | 0.689 ± 0.015 |
| VAGDGYDVMDNG | 0.553 ± 0.029 |
| VAGFPSPVVLGW | 0.607 ± 0.085 |
| VALFIRITKHEY | 0.549 ± 0.027 |
| VAPPVLCRCSLR | 0.6481 ± 0.0052 |
| VARVGFRETLSF | 0.703 ± 0.05 |
| VATVSLSVRNTS | 0.66 ± 0.033 |
| VAVGLGRAVFGV | 0.611 ± 0.034 |

| Sequence | protein stability index |
| --- | --- |
| VAVWGGSGDWGR | 0.729 ± 0.068 |
| VCAEGAAYSDKA | 0.646 ± 0.038 |
| VCAFGFPAASRV | 0.6627 ± 0.0046 |
| VCFSVSWSGLSC | 0.681 ± 0.009 |
| VCGALRWCGGPD | 0.705 ± 0.018 |
| VCGLRFLLFGCG | 0.63 ± 0.021 |
| VCIGVGGVVLGL | 0.642 ± 0.039 |
| VCKQASDSKLQG | 0.663 ± 0.023 |
| VCLRVGQGVLWW | 0.727 ± 0.021 |
| VCLVCLFNACRF | 0.608 ± 0.032 |
| VCLVNWLCFFCV | 0.529 ± 0.037 |
| VCPPSPTLKPPP | 0.624 ± 0.011 |
| VCRRSVLHSCWS | 0.678 ± 0.0097 |
| VCRTLAPCIRWR | 0.633 ± 0.063 |
| VCSLSCVGIWYW | 0.625 ± 0.0039 |
| VCTRACFLFAYP | 0.582 ± 0.015 |
| VDCYIFPGIGAL | 0.701 ± 0.041 |
| VDHWVCWCGGWV | 0.731 ± 0.0098 |
| VDINYVIGRIRS | 0.642 ± 0.0087 |
| VDRAFVWYLRDL | 0.695 ± 0.0076 |
| VDRDWFLKRDSH | 0.711 ± 0.031 |
| VDTTISVCCSVC | 0.68339 ± 0.00029 |
| VDVSGIKAGRPW | 0.681 ± 0.011 |

| Sequence | protein stability index |
| --- | --- |
| VEAFIVDETRVV | 0.6984 ± 0.0064 |
| VEAGDYAWDEAA | 0.657 ± 0.056 |
| VECVPFAPPRPH | 0.68 ± 0.14 |
| VEEKDNNVRYVL | 0.697 ± 0.025 |
| VEHVRIGGGGKS | 0.7 ± 0.013 |
| VEQISYATIAFV | 0.608 ± 0.061 |
| VERIALIPASRQ | 0.706 ± 0.035 |
| VERRNAVGTDEK | 0.611 ± 0.063 |
| VEVCLLRRWFGL | 0.667 ± 0.055 |
| VEWGGDGVFWTG | 0.8 ± 0.023 |
| VFALFRLSSLDK | 0.673 ± 0.074 |
| VFALPPAPPPSP | 0.722 ± 0.062 |
| VFCPGWRKCNDP | 0.661 ± 0.043 |
| VFEVNPRFDKLV | 0.758 ± 0.016 |
| VFFCHFRFTPPS | 0.692 ± 0.059 |
| VFFDLALRWYGV | 0.748 ± 0.082 |
| VFGDFAIGGLSG | 0.711 ± 0.077 |
| VFGLSPLLQPSD | 0.654 ± 0.0086 |
| VFGRHSNRSPLY | 0.808 ± 0.07 |
| VFLGCCWVHFFY | 0.534 ± 0.0062 |
| VFLILKPRDLTE | 0.667 ± 0.01 |
| VFLSITHFESRV | 0.723 ± 0.055 |
| VFPIISYPHTKS | 0.6779 ± 0.0064 |

| Sequence | protein stability index |
| --- | --- |
| VFPPRPPRAFPP | 0.662 ± 0.00098 |
| VFPYGVSRGALL | 0.66 ± 0.011 |
| VFRFRARRYNES | 0.655 ± 0.079 |
| VFSFFNFCFCFY | 0.615 ± 0.06 |
| VFSTRLTSWYLT | 0.555 ± 0.01 |
| VFVGCRECKLCA | 0.57592 ± 7.6e-05 |
| VFVLEGSSTPRS | 0.6487 ± 0.0011 |
| VFVRSTSFLFFG | 0.678 ± 0.0097 |
| VGAAVFGARWGA | 0.689 ± 0.037 |
| VGACLEVWDGVR | 0.686 ± 0.024 |
| VGAEGWAVAGDM | 0.77 ± 0.078 |
| VGAGGSLPLNKV | 0.6928 ± 0.0062 |
| VGAPGGVETTKA | 0.685 ± 0.015 |
| VGARAIITIEFG | 0.598 ± 0.018 |
| VGASFVAVGVEG | 0.641 ± 0.041 |
| VGAWGLMLASVV | 0.5698 ± 0.0055 |
| VGAWRGVLVGGG | 0.612 ± 0.0068 |
| VGCFLDSLWDWV | 0.679 ± 0.022 |
| VGCGCVRGYWFG | 0.734 ± 0.018 |
| VGCPKMTKIFFV | 0.594 ± 0.028 |
| VGCVFVASRLVL | 0.627 ± 0.038 |
| VGCWLLGYFAHQ | 0.675 ± 0.0095 |
